Results on eight molecules are retold here after patent publication US20160009800A1 (XOMA US, published 2016).

The target of assay [1] is T1, human insulin receptor (human, UniProt P06213 28-1382).
T1 construct: whole, on cells; Uncomplexed receptor on serum-starved cells (CHOK1 transfectants or IM-9); also called hINSR; INSR
Description: FACS, serum-starved CHO-K1 cells expressing human INSR, no insulin. (In general: A flow cytometer gives signals particle by particle.)
Description: (§1) Twenty five microliter aliquots of cells were plated into 96 well plates, mixed with 25 ul of antibody or PPE and incubated on ice for 1 h.
(§2) The cells were then washed once with FACS buffer and the binding of the antibody was detected by the addition of 25 ul of an appropriate fluorochrome-conjugated secondary antibody. […] After a final 15 min incubation on ice the cells were washed and the pellets resuspended in FACS buffer. The cells were analyzed on a FACSCAN™ (Becton-Dickinson, Milipitas, Calif.) and the data analyzed in both FLOWJO™ (Treestar, Ashland, Oreg.) and Microsoft Excel™.

The target of assay [2] is T2, mouse insulin receptor complexed with human insulin (mouse; human, UniProt P15208 28-1372; P01308 25-54; P01308 90-110).
T2 construct: whole, on cells;mature; also called muINSR/hINS complex
Description: FACS, serum-starved CHO-K1 cells expressing mouse INSR, with insulin.
Description: as §1, §2

The target of assay [3] is T3, human insulin receptor complexed with human insulin (human, UniProt P06213 28-1382; P01308 25-54; P01308 90-110).
T3 construct: whole, on cells;mature; also called hINSR-hINS complex; INS/INSR complex
Description: FACS, CHO-K1 human INSR cells, signal with insulin divided by signal without insulin.

Assay [4] addresses T1, human insulin receptor. Description: KinExA antibody depletion by hINSR8-CHOK1 cells, without insulin. (In general: Kinetic exclusion samples the free partner from a solution-phase mixture.)
Description: (§3) Beads were rotated at room temperature for 6 hours then allowed to settle. Supernatant was replaced with PBS with 50 mg/mL BSA Fraction V (Sigma-Aldrich, St. Louis, Mo.) and rotated overnight at 4° C. […] On the KinExA 3000 the sample was injected at 0.25 mL/minute for 240 seconds, then rinsed for 60 seconds in running buffer (PBS with 0.05% sodium azide), then 240 seconds of the detection solution was injected, followed by a final 90 second wash at 1 mL/minute. The difference in voltage from an early initial time-point and a time point near the end of the run was measured and used to calculate affinities. The INSR concentration on the cells was estimated at 2.5×10⁵ receptors/cell. Affinity was determined using the KinExA software (Sāpidyne, Boise Id.) and EC50's were calculated by non-linear fit in Prism (GraphPad Software, La Jolla Calif.).
(§4) Samples were incubated overnight at 4° C. for 18 hours then centrifuged to pellet cells and supernatants were removed for testing on the KinExA. […] Detection solution used was R-PE-(Fab′)2 fragment goat anti-Human IgG(H+L) (Jackson Immuno Research, West Grove Pa.).
Assay [5] deals with T3, human insulin receptor complexed with …. Nature of the assay: KinExA, affinity with insulin against affinity without insulin.
Description: as §3, §4
Assay [6] shares this target. Nature of the assay: FACS, serum-starved CHO-K1 cells expressing human INSR, with insulin.
Description: as §1, §2
Assay [7] concerns the target T2, mouse insulin receptor complexed with …. Description: FACS, CHO-K1 mouse INSR cells, signal with insulin divided by signal without insulin.
The target of assay [8] is T3, human insulin receptor complexed with …. Nature of the assay: KinExA antibody depletion by hINSR8-CHOK1 cells, with 175 nM insulin.
Description: as §3, §4
For assay [9], the target named is T4, mouse insulin receptor (mouse, UniProt P15208 28-1372).
T4 construct: whole, on cells; also called muINSR; mINSR
Description: FACS, serum-starved CHO-K1 cells expressing mouse INSR, no insulin.

In assay [10] the target is T4, mouse insulin receptor. Description: cell-based or functional assay.
In assay [11] the target is T1, human insulin receptor. Description: cell-based or functional assay.
The target of assay [12] is T1, human insulin receptor. Nature of the assay: cell-based or functional assay. The source holds these as a separate data set.
Assay [13] addresses T3, human insulin receptor complexed with …. Description: FACS, serum-starved CHO-K1 cells expressing human INSR, with insulin [cont'd].
Description: as §1, §2
The target of assay [14] is T4, mouse insulin receptor. Description: FACS, serum-starved CHO-K1 cells expressing mouse INSR, no insulin [cont'd].
Description: as §1, §2
Assay [15] concerns the target T2, mouse insulin receptor complexed with …. Description: FACS, serum-starved CHO-K1 cells expressing mouse INSR, with insulin [cont'd].
Description: as §1, §2
The target of assay [16] is T3, human insulin receptor complexed with …. Nature of the assay: FACS, CHO-K1 human INSR cells, signal with insulin divided by signal without insulin [cont'd].
Assay [17] addresses T1, human insulin receptor. Description: FACS, serum-starved CHO-K1 cells expressing human INSR, no insulin [cont'd].
Description: as §1, §2
Assay [18] has as its target T2, mouse insulin receptor complexed with …. Description: FACS, CHO-K1 mouse INSR cells, signal with insulin divided by signal without insulin [cont'd].
Description: as §1, §2
The target of assay [19] is T4, mouse insulin receptor. Nature of the assay: cell-based or functional assay. This is another data set of the same source.
Assay [20] concerns the target T1, human insulin receptor. Description: cell-based or functional assay. This is another data set of the same source.

B1: Ab053 (antibody, V domains shown)
VH: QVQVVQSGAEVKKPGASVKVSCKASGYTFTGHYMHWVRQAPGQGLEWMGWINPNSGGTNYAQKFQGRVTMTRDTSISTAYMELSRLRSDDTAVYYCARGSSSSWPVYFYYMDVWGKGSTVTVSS
VL: QSALTQPRSVSESPGKTVTISCTGSGGSIGSNYVQWYQQRPGSAPTTVIFEDNRRPSGVPDRFSGSIHSSSNSASLTISGLKTEDEADYYCQSYVGTIVVFGGGTKVTVL
notes: also called XPA.015.196
As to B1, the “FACS area under log transformed data MFI” value turned out to be 1330 in assay [1], 574 in [2], 451 in [6] and 1130 in [9]. For the same molecule, the results for the “FACS area under log transformed data MFI ratio (+insulin/-insulin)” value in assay [3] and in assay [7] were 0.34 and 0.51, respectively. Further, the results for the Kd in assay [4] and in assay [8] were 0.148 nM and 0.096 nM, respectively. Besides, in [5], the “Fold Improvement with Insulin” value came out at 1.5 fold. Further, in assay [10], the “EC50 of pAkt activation without insulin, mouse INSR CHO-K1 cells” value came out at 0.69 nM. Moreover, the “relative maximum pAkt activation without insulin, mouse INSR CHO-K1 cells” value in assay [10] was found to be 48%. Also, in assay [11], the “EC50 of pAkt activation without insulin, human INSR CHO-K1 cells” value is 0.42 nM. For the same molecule, in [11], the “relative maximum pAkt activation without insulin, human INSR CHO-K1 cells” value was 64%.

B2: Ab080 (antibody, IgG2, V domains shown)
VH: EVQLVESGGGVVQPGGSLRLSCAASGFTFDDYAMHWVRQAPGKGLEWVSLISWDGGSTYYADSVKGRFTISRDNSKNSLYLQMNSLRAEDTALYYCAKARGVVIIDYWGQGTLVTVSS
VL: EIVLTQSPGTLSLSPGERATLSCRASQSLSSSFLAWYQQKPGQAPRLLIYGAGSRATGVPDRFSGSGYGTDFSLTISRLELEDFAVYYCQQYDRSQITFGQGTRLEIK
notes: also called XPA.015.246
Regarding B2, the “pAKT assay, fold-decrease in insulin EC50 relative to isotype control Ab” value in assay [12] amounted to 8.4 fold. Further, the “FACS area under log transformed data MFI” value came out at 386 in [13], 157 in [14], 191 in assay [15] and 282 in [17]. In addition, the Kd was determined as 12 nM in [4] and 0.68 nM in assay [8]. Besides, the “Fold Improvement with Insulin” value in assay [5] stood at 17.6 fold. Besides, the “FACS area under log transformed data MFI ratio (+insulin/-insulin)” value was determined as 1.37 in assay [16] and 1.22 in assay [18].

B3: Ab076 (antibody, V domains shown)
VH: B2 VH
VL: EIVMTQSPATLSVSPGERATLSCRASQSISTNLAWYQQKPGQTPRLLIYGASTRATGIPARFSGSGSGTEFTLTISSLQSEDFAVYYCQQYNSEISFGQGTRLEIK
notes: also called XPA.015.241
Turning to B3, the “FACS area under log transformed data MFI” value in [13] turned out to be 543; in [14] it was 268; in assay [15], 391; in assay [17] it was 552. For the same molecule, the “FACS area under log transformed data MFI ratio (+insulin/-insulin)” value came out at 0.98 in [16] and 1.46 in [18].

B4: Ab083 (antibody, IgG2, V domains shown)
VH: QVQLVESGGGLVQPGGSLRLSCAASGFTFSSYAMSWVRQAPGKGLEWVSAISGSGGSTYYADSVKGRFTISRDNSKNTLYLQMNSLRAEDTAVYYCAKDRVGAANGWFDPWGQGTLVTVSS
VL: AIQLTQSPSSLSASVGDRVTISCRASQSITSYLNWYQQKPGKAPNLLIYAASSLQSGVPSRFSGSGSGTDFTLTIAGLQPEDFATYYCQQFDSYPFTFGGGTKLEIK
notes: also called XPA.015.249
On to B4, for which the “FACS area under log transformed data MFI” value in assay [13] was 294; in [14], 81; in [15], 179. Further, the Kd was determined as 7.6 nM in assay [4] and 0.376 nM in assay [8].

B5: Ab084 (antibody, IgG2, V domains shown)
VH: QVQLVESGGGLVQPGGSLRLSCAASGFTFKNYWMTWVRQAPGKGLEWVADIKGDGSRQHYADSVKGRFTISRDNARNSLFLQMNSLRVEDTALYYCATDPPWDRDAFDLWGQGTMVTVSS
VL: AIRMTQSPSTLSASVGDRVTITCRASQSISSWLAWYQQTPGKAPKLLIYAASNLQSGVPSRFSGSGSGTDFTLTISSLQPEDFATYYCQQSYNTPLTFGGGTKVEIK
notes: also called XPA.015.250
Regarding B5, the “FACS area under log transformed data MFI” value turned out to be 508 in assay [13], 196 in assay [14], 344 in assay [15] and 532 in [17]. The “FACS area under log transformed data MFI ratio (+insulin/-insulin)” value in assay [16] stood at 0.95; in [18], 1.75.

B6: Ab075 (antibody, IgG2, V domains shown)
VH: EVQLVETGGGVVQPGRSLRLSCAASGFSFSSYDMYWVRQAPGKGLEWVAVISYDGNDKQYADSVKGRFTISRDNSKRTLYLQMDSLRTEDTATYYCTREGNGREIDYWGPGTLVTVSS
VL: QSVLTQPPSVSAAPGQKVTISCSGSSSNIGNNYVTWYQHVPGTAPKLLIFDNDKRPSGIPDRFSGSKSGTSATLAITGLQTGDEADYYCGTWDSSLNPLFGGGTQLTVL
notes: also called XPA.015.232
For B6, the “FACS area under log transformed data MFI” value is 353 in assay [13], 425 in assay [14], 446 in assay [15] and 692 in [17]. The “FACS area under log transformed data MFI ratio (+insulin/-insulin)” value in assay [16] came out at 0.51; in [18], 1.05.

B7: Ab085 (antibody, IgG2, V domains shown)
VH: EVQLVESGGGVVQPGRSLRLSCAASGFIFSSYGMHWVRQVPDKGLEWVAGISLRGSDNYYADSVKGRFTISRDNSKNTLYLQMNNLRPDDTAVYYCARGFRWPVTPFDHWGQGTLVTVSS
VL: QTVVTQEPSFSVSPGGTVTLTCGLTSGSVSTRNFPGWYQQTPGQTLRTLIYNTNTRSSGVPDRFSGSILGNKAALTITGAQADDESDYYCVLYMTGDIWVFGGGTKVTVLG
notes: also called XPA.015.275
Consider B7, for which the “pAKT assay, fold-decrease in insulin EC50 relative to isotype control Ab” value in assay [12] worked out at 8.9 fold. Further, the affinity in assay [8], expressed as Kd, was 0.2 nM. For the same molecule, the “fold-change in insulin EC50 (pAkt) relative to isotype control, 20 ug/ml Ab085, mouse INSR CHO-K1 cells” value in assay [19] amounted to 8 fold. Moreover, in [20], the “fold-change in insulin EC50 (pAkt) relative to isotype control, 1 ug/ml Ab085, human INSR CHO-K1 cells” value stood at 3 fold and the “fold-change in insulin EC50 (pAkt) relative to isotype control, 10 ug/ml Ab085, human INSR CHO-K1 cells” value amounted to 9 fold.

B8: Ab037 (antibody, V domains shown)
VH: EVQLLESGGGLVQPGGSLRLSCAASGFTFSSYEMNWVRQAPGKGLEWVSSISSSSRYADVANSVVGRFTISRDNSKNTLYLQMNSLRAEDTAVYYCARGEWLDHFDYWGQGTLVTVSS
VL: QSVLTQPPSASGTPGQRVTISCSGSSSNIGNSAVNWYQQLPGTAPKLLIYDNNKRPSGVPDRFSGSKSGTSASLAISGLRSEDEADYYCQVWDSGTAVFGGGTKLTVLG
notes: Partial allosteric agonist; also called XPA.015.048
B8 gave a dissociation constant (Kd) in assay [4] of 0.108 nM. The “Fold Improvement with Insulin” value in assay [5] came out at 1.4 fold. Moreover, in assay [8], the equilibrium dissociation constant (Kd) was determined as 0.08 nM. Moreover, in assay [10], the “EC50 of pAkt activation without insulin, mouse INSR CHO-K1 cells” value is 1.42 nM and the “relative maximum pAkt activation without insulin, mouse INSR CHO-K1 cells” value was determined as 42%. Besides, in assay [11], the “EC50 of pAkt activation without insulin, human INSR CHO-K1 cells” value was 0.65 nM and the “relative maximum pAkt activation without insulin, human INSR CHO-K1 cells” value amounted to 79%.

Usually Kd stands for the equilibrium constant for the complex coming apart.
